# Results as given in patent publication US20200199241A1 (Chugai, published 2020).
# Residue numbers refer to the chain shown, from its start. In names and notes the source's numbering stands.
# T1: human FcγRIIa(H) (human, UniProt P12318 36-217)
# T1 construct: also called FcgRIIaH; hFcgRIIa(H)
# T1 sequence: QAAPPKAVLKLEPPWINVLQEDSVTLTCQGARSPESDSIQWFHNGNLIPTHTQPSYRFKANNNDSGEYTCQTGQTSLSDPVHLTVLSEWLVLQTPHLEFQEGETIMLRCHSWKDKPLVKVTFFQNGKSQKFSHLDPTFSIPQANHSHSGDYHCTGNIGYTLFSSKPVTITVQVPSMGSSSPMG
# T2: human FcγRIIa(R) (human, UniProt P12318 36-217)
# T2 construct: also called FcgRIIaR; hFcgRIIa(R)
# T2 chain: T1 sequence with H133R
# T3: human FcγRIIb (human, UniProt P31994 43-217, limits assumed)
# T3 construct: also called FcgRIIb; hFcgRIIb
# T3 sequence: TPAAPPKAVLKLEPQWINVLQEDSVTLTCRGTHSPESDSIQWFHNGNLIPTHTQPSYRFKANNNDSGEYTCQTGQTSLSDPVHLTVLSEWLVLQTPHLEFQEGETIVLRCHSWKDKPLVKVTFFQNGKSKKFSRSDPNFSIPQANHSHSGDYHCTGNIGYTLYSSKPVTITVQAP
# T4: FcγRIIa type H (human, UniProt P12318 36-217)
# T4 construct: also called FcγRIIaH; FcγRIIH
# T4 sequence: T1 sequence
# T5: FcγRIIb (human, UniProt P31994 43-217, limits assumed)
# T5 construct: also called FcgRIIb; FcγIIB
# T5 sequence: T3 sequence
# B1: GpH7-B3 Q295S/GpL16-k0 (antibody, human IgG1)
# heavy: not shown
# light: DIVMTQSPLSLPVTPGEPASISCQASESLVHSNRNTYLHWYLQKPGQSPQLLIYKVSNRFSGVPDRFSGSGSGTDFTLKISRVEAEDVGVYYCSQNTHVPPTFGQGTKVEIE
# notes: B3 variant; copies: 2 + 2
# B2: GpH7-B3 Q295W/GpL16-k0 (antibody, human IgG1)
# heavy: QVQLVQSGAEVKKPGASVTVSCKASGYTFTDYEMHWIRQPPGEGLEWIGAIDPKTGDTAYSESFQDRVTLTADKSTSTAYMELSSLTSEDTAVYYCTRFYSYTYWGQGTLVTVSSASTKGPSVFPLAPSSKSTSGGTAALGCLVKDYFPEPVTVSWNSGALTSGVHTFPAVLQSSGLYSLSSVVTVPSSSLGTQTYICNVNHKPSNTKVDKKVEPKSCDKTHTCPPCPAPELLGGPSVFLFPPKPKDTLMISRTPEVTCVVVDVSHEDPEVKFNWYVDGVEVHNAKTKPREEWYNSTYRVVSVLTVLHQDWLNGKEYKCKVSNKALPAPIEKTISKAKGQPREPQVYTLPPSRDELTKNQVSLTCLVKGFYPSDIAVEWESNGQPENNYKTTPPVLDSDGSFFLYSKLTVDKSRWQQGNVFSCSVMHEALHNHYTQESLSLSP
# light: B1 light
# notes: B3 variant; copies: 2 + 2
# B3: GpH7-B3 Q295Y/GpL16-k0 (antibody, human IgG1)
# heavy: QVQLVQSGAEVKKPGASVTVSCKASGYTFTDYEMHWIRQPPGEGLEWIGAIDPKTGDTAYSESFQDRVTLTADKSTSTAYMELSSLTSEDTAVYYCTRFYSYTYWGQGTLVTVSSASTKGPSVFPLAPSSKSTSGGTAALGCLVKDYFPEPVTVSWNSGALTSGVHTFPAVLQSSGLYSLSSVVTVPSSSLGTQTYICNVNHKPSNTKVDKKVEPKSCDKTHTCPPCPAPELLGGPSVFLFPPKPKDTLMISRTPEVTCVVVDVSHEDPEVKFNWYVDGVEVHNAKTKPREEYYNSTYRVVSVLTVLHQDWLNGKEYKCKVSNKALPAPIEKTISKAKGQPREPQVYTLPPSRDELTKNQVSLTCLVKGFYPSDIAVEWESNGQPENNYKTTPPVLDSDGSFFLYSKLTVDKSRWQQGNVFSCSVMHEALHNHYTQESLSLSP
# light: B1 light
# notes: B3 variant; copies: 2 + 2
# B4: GpH7-B3 S298G/GpL16-k0 (antibody, human IgG1)
# heavy: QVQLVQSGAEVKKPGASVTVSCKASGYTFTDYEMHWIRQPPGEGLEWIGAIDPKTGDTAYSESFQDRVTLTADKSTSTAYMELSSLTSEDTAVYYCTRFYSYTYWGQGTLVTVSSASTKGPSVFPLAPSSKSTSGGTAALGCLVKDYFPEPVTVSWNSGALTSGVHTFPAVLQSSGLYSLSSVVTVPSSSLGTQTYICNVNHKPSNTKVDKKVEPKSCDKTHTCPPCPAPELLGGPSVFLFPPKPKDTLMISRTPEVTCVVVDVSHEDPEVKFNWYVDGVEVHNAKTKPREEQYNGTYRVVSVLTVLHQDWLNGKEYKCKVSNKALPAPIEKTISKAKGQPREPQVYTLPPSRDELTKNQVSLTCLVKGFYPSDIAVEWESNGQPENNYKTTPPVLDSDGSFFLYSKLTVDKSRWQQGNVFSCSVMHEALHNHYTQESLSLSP
# light: B1 light
# notes: B3 variant; copies: 2 + 2
# B5: GpH7-B3 S298K/GpL16-k0 (antibody, human IgG1)
# heavy: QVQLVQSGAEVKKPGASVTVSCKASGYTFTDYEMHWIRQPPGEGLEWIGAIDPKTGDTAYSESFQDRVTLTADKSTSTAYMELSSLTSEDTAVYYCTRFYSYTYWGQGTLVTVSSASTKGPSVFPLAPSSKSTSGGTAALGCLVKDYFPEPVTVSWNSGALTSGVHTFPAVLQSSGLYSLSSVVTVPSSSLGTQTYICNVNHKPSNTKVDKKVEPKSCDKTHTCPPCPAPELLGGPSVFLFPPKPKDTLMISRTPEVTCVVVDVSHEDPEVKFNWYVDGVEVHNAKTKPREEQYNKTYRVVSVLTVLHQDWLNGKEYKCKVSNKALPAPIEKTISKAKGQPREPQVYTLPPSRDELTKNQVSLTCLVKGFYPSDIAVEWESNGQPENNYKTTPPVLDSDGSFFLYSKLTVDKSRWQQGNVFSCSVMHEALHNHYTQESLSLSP
# light: B1 light
# notes: B3 variant; copies: 2 + 2
# B6: GpH7-B3 S298P/GpL16-k0 (antibody, human IgG1)
# heavy: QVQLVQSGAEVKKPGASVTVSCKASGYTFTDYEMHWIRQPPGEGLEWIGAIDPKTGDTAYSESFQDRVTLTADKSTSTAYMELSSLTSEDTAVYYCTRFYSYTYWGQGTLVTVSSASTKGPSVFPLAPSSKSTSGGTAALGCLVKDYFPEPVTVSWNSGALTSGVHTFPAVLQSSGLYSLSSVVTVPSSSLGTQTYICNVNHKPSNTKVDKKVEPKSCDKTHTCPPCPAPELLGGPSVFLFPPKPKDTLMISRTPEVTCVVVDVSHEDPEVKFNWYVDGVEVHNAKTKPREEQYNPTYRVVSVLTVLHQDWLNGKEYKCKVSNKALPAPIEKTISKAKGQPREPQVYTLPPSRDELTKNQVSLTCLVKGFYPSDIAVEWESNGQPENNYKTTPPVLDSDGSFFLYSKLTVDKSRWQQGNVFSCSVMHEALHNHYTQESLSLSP
# light: B1 light
# notes: B3 variant; copies: 2 + 2
# B7: GpH7-B3 S298R/GpL16-k0 (antibody, human IgG1)
# heavy: not shown
# light: B1 light
# notes: B3 variant; copies: 2 + 2
# B8: GpH7-B3 S298Y/GpL16-k0 (antibody, human IgG1)
# heavy: not shown
# light: B1 light
# notes: B3 variant; copies: 2 + 2
# B9: GpH7-B3 S324K/GpL16-k0 (antibody, human IgG1)
# heavy: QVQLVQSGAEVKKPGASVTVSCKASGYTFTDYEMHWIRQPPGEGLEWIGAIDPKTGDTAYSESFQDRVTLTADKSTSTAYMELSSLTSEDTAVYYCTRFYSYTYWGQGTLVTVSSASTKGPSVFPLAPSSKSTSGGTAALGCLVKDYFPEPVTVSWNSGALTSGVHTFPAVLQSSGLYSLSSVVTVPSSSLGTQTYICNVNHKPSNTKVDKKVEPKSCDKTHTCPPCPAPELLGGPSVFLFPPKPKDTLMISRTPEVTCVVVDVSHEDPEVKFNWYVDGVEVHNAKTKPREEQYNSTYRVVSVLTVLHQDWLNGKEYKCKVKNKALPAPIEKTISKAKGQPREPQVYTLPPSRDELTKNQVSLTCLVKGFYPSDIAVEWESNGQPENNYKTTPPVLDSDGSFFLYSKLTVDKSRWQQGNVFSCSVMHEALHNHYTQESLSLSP
# light: B1 light
# notes: B3 variant; copies: 2 + 2
# B10: GpH7-B3 S324P/GpL16-k0 (antibody, human IgG1)
# heavy: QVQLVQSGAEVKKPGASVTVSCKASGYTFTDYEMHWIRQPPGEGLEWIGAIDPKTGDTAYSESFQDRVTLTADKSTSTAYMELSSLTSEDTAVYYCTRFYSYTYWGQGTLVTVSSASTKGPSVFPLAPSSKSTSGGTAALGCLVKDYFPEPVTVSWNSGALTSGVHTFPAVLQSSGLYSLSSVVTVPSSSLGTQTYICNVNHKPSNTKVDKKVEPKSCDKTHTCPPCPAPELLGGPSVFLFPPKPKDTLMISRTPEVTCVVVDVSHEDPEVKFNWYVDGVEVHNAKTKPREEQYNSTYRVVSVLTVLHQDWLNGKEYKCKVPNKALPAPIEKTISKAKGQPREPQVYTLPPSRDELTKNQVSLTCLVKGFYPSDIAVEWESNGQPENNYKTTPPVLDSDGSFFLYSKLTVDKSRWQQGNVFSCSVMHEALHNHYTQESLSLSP
# light: B1 light
# notes: B3 variant; copies: 2 + 2
# B11: GpH7-B3 Y296G/GpL16-k0 (antibody, human IgG1)
# heavy: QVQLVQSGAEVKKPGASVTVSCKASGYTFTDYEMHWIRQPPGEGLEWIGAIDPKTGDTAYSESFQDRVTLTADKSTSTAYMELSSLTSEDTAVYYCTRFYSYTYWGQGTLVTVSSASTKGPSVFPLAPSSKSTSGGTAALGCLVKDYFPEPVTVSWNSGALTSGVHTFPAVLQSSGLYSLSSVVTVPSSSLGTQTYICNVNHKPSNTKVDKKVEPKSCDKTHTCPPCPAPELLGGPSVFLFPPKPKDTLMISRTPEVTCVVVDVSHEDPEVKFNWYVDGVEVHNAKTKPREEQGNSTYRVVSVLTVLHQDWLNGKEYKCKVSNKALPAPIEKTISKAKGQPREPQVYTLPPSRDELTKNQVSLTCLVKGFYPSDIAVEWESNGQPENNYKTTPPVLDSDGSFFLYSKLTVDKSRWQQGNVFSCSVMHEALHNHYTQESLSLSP
# light: B1 light
# notes: B3 variant; copies: 2 + 2
# B12: GpH7-B3 Y296K/GpL16-k0 (antibody, human IgG1)
# heavy: not shown
# light: B1 light
# notes: B3 variant; copies: 2 + 2
# B13: GpH7-B3 Y296P/GpL16-k0 (antibody, human IgG1)
# heavy: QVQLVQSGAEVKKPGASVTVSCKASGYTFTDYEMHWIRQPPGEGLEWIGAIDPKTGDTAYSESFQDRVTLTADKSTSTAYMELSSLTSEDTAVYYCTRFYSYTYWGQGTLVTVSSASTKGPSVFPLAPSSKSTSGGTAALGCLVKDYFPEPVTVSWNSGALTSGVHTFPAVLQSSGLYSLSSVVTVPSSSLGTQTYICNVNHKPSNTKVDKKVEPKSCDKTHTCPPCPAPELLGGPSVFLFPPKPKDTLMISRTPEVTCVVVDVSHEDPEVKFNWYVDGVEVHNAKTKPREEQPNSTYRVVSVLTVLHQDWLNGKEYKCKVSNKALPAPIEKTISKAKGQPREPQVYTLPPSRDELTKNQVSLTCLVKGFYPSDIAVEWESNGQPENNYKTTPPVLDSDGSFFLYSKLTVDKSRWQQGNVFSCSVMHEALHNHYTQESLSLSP
# light: B1 light
# notes: B3 variant; copies: 2 + 2
# B14: GpH7-B3 Y296R/GpL16-k0 (antibody, human IgG1)
# heavy: not shown
# light: B1 light
# notes: B3 variant; copies: 2 + 2
# B15: GpH7-B3 Y300K/GpL16-k0 (antibody, human IgG1)
# heavy: not shown
# light: B1 light
# notes: B3 variant; copies: 2 + 2
# B16: GpH7-B3 Y300P/GpL16-k0 (antibody, human IgG1)
# heavy: not shown
# light: B1 light
# notes: B3 variant; copies: 2 + 2
# B17: GpH7-B3 Y300R/GpL16-k0 (antibody, human IgG1)
# heavy: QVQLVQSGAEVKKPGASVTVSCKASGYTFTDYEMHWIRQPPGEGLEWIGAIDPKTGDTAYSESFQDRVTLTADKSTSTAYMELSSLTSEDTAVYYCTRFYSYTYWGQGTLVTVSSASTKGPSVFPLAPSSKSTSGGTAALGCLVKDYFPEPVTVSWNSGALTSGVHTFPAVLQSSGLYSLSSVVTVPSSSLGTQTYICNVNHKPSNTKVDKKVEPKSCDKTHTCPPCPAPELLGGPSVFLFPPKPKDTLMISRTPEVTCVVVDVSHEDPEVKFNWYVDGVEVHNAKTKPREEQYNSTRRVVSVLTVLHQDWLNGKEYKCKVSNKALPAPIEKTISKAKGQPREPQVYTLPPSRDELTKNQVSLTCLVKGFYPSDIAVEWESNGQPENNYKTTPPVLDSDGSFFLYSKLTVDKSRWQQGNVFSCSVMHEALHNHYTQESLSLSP
# light: B1 light
# notes: B3 variant; copies: 2 + 2
# B18: IL6R-BP130/IL6R-L (antibody, human IgG1)
# heavy: QVQLQESGPGLVKPSETLSLTCAVSGHSISHDHAWSWVRQPPGEGLEWIGFISYSGITNYNPSLQGRVTISRDNSKNTLYLQMNSLRAEDTAVYYCARSLARTTAMDYWGEGTLVTVSSASTKGPSVFPLAPSSKSTSGGTAALGCLVKDYFPEPVTVSWNSGALTSGVHTFPAVLQSSGLYSLSSVVTVPSSSLGTQTYICNVNHKPSNTKVDKKVEPKSCDKTHTCPPCPAPDLLGGDSVFLFPPKPKDTLMISRTPEVTCVVVDVSHEDPEVKFNWYVDGVEVHNAKTKPREEQYNSTYRVVSVLTVLHQDWLNGKEYKCKMSNKALPKPIEKTISKAKGQPREPQVYTLPPSRDELTKNQVSLTCLVKGFYPSDIAVEWESNGQPENNYKTTPPVLDSDGSFFLYSKLTVDKSRWQQGNVFSCSVMHEALHNHYTQESLSLSP
# light: DIQMTQSPSSLSASVGDRVTITCRASQDISSYLNWYQQKPGKAPKLLIYYTSRLHSGVPSRFSGSGSGTDFTFTISSLQPEDIATYYCQQGNTLPYTFGQGTKVEIK
# notes: IgG1; Fc variant of IL6R-B3; copies: 2 + 2
# B19: IL6R-BP152/IL6R-L (antibody, human IgG1)
# heavy: B18 heavy with L236Y, G239D, Y298D, M325V, K328A, K332R
# light: B18 light
# notes: as for B18
# B20: IL6R-BP176/IL6R-L (antibody, human IgG1)
# heavy: B18 heavy with M325V, K328D
# light: B18 light
# notes: as for B18
# B21: IL6R-BP178/IL6R-L (antibody, human IgG1)
# heavy: B18 heavy with G239D, P273G, M325V
# light: B18 light
# notes: as for B18
# B22: IL6R-BP188/IL6R-L (antibody, human IgG1)
# heavy: B18 heavy with G239D, H270D, P273G, M325V
# light: B18 light
# notes: as for B18
# B23: IL6R-BP193/IL6R-L (antibody, human IgG1)
# heavy: B18 heavy with H270D, P273G, M325V
# light: B18 light
# notes: as for B18
# B24: IL6R-BP201/IL6R-L (antibody, human IgG1)
# heavy: B18 heavy with G239D, P273G, M325V, K332R
# light: B18 light
# notes: as for B18
# B25: IL6R-BP202/IL6R-L (antibody, human IgG1)
# heavy: B18 heavy with D235E, G239D, P273G, M325V, K328A, K332R
# light: B18 light
# notes: as for B18
# B26: IL6R-BP205/IL6R-L (antibody, human IgG1)
# heavy: B18 heavy with P273G, Y298D, M325V, K332R
# light: B18 light
# notes: as for B18
# B27: IL6R-BP146/IL6R-L (antibody, human IgG1)
# heavy: B18 heavy with D235E, L236Y, G239D, M325V, K328A, K332A
# light: B18 light
# notes: as for B18
# B28: IL6R-BP204/IL6R-L (antibody, human IgG1)
# heavy: B18 heavy with P273G, M325V, K328A, K332R
# light: B18 light
# notes: as for B18
# Biological target: T1, human FcγRIIa(H)
# Experiment: SPR, captured antibody;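 also: antibody captured on a sensor chip, Fcγ receptor flowed over at 25 °C, receptor binding normalized to the captured antibody amount and expressed relative to the reference antibody ×100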
# Description: (§1) Interaction between each modified antibody and Fcγ receptor prepared in the manner described above was analyzed using the BIACORE™ T100 surface plasmon resonance system (GE Healthcare), BIACORE™ T200 surface plasmon resonance system (GE Healthcare), BIACORE™ A100 surface plasmon resonance system or BIACORE™ 4000 surface plasmon resonance system. HBS-EP+ (GE Healthcare) was used for the running buffer, and measurements were carried out at 25° C. The chips used were chips in which antigen peptides, Protein A (Thermo Scientific), Protein A/G (Thermo Scientific) or Protein L (ACTIGEN® protein (Alltech or BioVision) were immobilized on the Series S Sensor Chip CMS (GE Healthcare) or Series S Sensor Chip CM4 (GE Healthcare) by amine coupling, or chips in which preliminarily biotinylated antigen peptides were allowed to interact and then immobilized on the Series S Sensor Chip SA (certified) (GE Healthcare). The target antibodies were captured on these sensor chips, Fcγ receptor diluted with the running buffer was allowed to interact, followed by measurement of the amount of bound antibody. The amounts bound were compared between antibodies. However, since the amount of Fcγ receptor bound depends on the amount of captured antibody, the values used for comparison were first corrected by dividing the amount of Fcγ receptor bound by the captured amount of each antibody. Through reaction with 10 mM glycine-HCl at pH 1.5, the sensor chips were regenerated by washing off antibody captured on the sensor chips and used repeatedly.
# (§2) Binding strength was evaluated according to the following method based on the results of analyzing the interaction with each FcγR. […] That value was then further multiplied by 100, and the resulting value was used as an indicator of relative binding activity to each FcγR.
row,relative binding activity,Binder
1,67 % of GpH7-B3/GpL16-k0,B1
2,38 % of GpH7-B3/GpL16-k0,B2
3,70 % of GpH7-B3/GpL16-k0,B3
4,43 % of GpH7-B3/GpL16-k0,B4
5,38 % of GpH7-B3/GpL16-k0,B5
6,0 % of GpH7-B3/GpL16-k0,B6
7,36 % of GpH7-B3/GpL16-k0,B7
8,35 % of GpH7-B3/GpL16-k0,B8
9,97 % of GpH7-B3/GpL16-k0,B9
10,14 % of GpH7-B3/GpL16-k0,B10
11,83 % of GpH7-B3/GpL16-k0,B11
12,66 % of GpH7-B3/GpL16-k0,B12
13,8 % of GpH7-B3/GpL16-k0,B13
14,74 % of GpH7-B3/GpL16-k0,B14
15,56 % of GpH7-B3/GpL16-k0,B15
16,0 % of GpH7-B3/GpL16-k0,B16
17,34 % of GpH7-B3/GpL16-k0,B17

# Biological target: T6, human FcγRIa (human, UniProt P12314 16-292, limits assumed)
# T6 construct: also called FcgRIa; hFcgRIa
# Experiment: SPR, captured antibody;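 also: antibody captured on a sensor chip, Fcγ receptor flowed over at 25 °C, receptor binding normalized to the captured antibody amount and expressed relative to the reference antibody ×100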
# Description: as §1, §2
row,relative binding activity,Binder
1,100 % of GpH7-B3/GpL16-k0,B1
2,81 % of GpH7-B3/GpL16-k0,B2
3,95 % of GpH7-B3/GpL16-k0,B3
4,100 % of GpH7-B3/GpL16-k0,B4
5,88 % of GpH7-B3/GpL16-k0,B5
6,15 % of GpH7-B3/GpL16-k0,B6
7,92 % of GpH7-B3/GpL16-k0,B7
8,100 % of GpH7-B3/GpL16-k0,B8
9,94 % of GpH7-B3/GpL16-k0,B9
10,91 % of GpH7-B3/GpL16-k0,B10
11,100 % of GpH7-B3/GpL16-k0,B11
12,99 % of GpH7-B3/GpL16-k0,B12
13,45 % of GpH7-B3/GpL16-k0,B13
14,100 % of GpH7-B3/GpL16-k0,B14
15,95 % of GpH7-B3/GpL16-k0,B15
16,9 % of GpH7-B3/GpL16-k0,B16
17,91 % of GpH7-B3/GpL16-k0,B17

# Biological target: T2, human FcγRIIa(R)
# Experiment: SPR, captured antibody;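 also: antibody captured on a sensor chip, Fcγ receptor flowed over at 25 °C, receptor binding normalized to the captured antibody amount and expressed relative to the reference antibody ×100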
# Description: as §1, §2
row,relative binding activity,Binder
1,52 % of GpH7-B3/GpL16-k0,B1
2,26 % of GpH7-B3/GpL16-k0,B2
3,38 % of GpH7-B3/GpL16-k0,B3
4,89 % of GpH7-B3/GpL16-k0,B4
5,79 % of GpH7-B3/GpL16-k0,B5
6,0 % of GpH7-B3/GpL16-k0,B6
7,62 % of GpH7-B3/GpL16-k0,B7
8,33 % of GpH7-B3/GpL16-k0,B8
9,75 % of GpH7-B3/GpL16-k0,B9
10,34 % of GpH7-B3/GpL16-k0,B10
11,77 % of GpH7-B3/GpL16-k0,B11
12,70 % of GpH7-B3/GpL16-k0,B12
13,10 % of GpH7-B3/GpL16-k0,B13
14,77 % of GpH7-B3/GpL16-k0,B14
15,59 % of GpH7-B3/GpL16-k0,B15
16,-1 % of GpH7-B3/GpL16-k0,B16
17,38 % of GpH7-B3/GpL16-k0,B17

# Biological target: T3, human FcγRIIb
# Experiment: SPR, captured antibody;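 also: antibody captured on a sensor chip, Fcγ receptor flowed over at 25 °C, receptor binding normalized to the captured antibody amount and expressed relative to the reference antibody ×100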
# Description: as §1, §2
row,relative binding activity,Binder
1,40 % of GpH7-B3/GpL16-k0,B1
2,16 % of GpH7-B3/GpL16-k0,B2
3,24 % of GpH7-B3/GpL16-k0,B3
4,68 % of GpH7-B3/GpL16-k0,B4
5,34 % of GpH7-B3/GpL16-k0,B5
6,-1 % of GpH7-B3/GpL16-k0,B6
7,22 % of GpH7-B3/GpL16-k0,B7
8,23 % of GpH7-B3/GpL16-k0,B8
9,64 % of GpH7-B3/GpL16-k0,B9
10,36 % of GpH7-B3/GpL16-k0,B10
11,58 % of GpH7-B3/GpL16-k0,B11
12,45 % of GpH7-B3/GpL16-k0,B12
13,7 % of GpH7-B3/GpL16-k0,B13
14,52 % of GpH7-B3/GpL16-k0,B14
15,45 % of GpH7-B3/GpL16-k0,B15
16,-1 % of GpH7-B3/GpL16-k0,B16
17,25 % of GpH7-B3/GpL16-k0,B17

# Biological target: T7, FcγRIa (human, UniProt P12314 16-292, limits assumed)
# T7 construct: also called FcgRIa; CD64
# T7 sequence (P12314 16-292 limits assumed): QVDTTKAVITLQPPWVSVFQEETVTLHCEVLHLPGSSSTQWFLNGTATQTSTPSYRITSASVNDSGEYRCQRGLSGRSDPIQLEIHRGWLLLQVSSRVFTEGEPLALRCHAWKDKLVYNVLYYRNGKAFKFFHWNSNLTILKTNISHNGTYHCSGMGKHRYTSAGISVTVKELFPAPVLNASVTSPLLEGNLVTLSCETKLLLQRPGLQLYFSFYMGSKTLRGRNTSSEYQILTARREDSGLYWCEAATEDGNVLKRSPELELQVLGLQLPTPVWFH
# Experiment: SPR (Biacore), bound amount, IL6R-BF648/IL6R-L = 100
# Description: (§3) According to the following method, relative binding activities were calculated for the results of analyzing interactions with the respective FcγRs.
row,relative binding activity,Binder
1,104 % of control,B18
2,34 % of control,B19
3,102 % of control,B20
4,51 % of control,B21
5,74 % of control,B22
6,113 % of control,B23
7,57 % of control,B24
8,43 % of control,B25
9,97 % of control,B26

# Biological target: T4, FcγRIIa type H
# Experiment: as above
# Description: as §3
row,relative binding activity,Binder
1,224 % of control,B18
2,203 % of control,B27
3,548 % of control,B19
4,128 % of control,B20
5,259 % of control,B21
6,154 % of control,B23
7,359 % of control,B24
8,285 % of control,B25
9,137 % of control,B28
10,108 % of control,B26

# Biological target: T5, FcγRIIb
# Experiment: as above
# Description: as §3
row,relative binding activity,Binder
1,156 % of control,B27
2,178 % of control,B19
3,147 % of control,B20
4,179 % of control,B21
5,179 % of control,B22
6,173 % of control,B23
7,186 % of control,B24
8,185 % of control,B25
9,165 % of control,B28
10,167 % of control,B26
